Experimental findings from patent publication CN104862283A (UNIV JINAN, dated 2015) are described below.

The assay addresses T1, 人肌红蛋白(Human Myoglobin) (human, UniProt P02144 2-154).
T1 construct: mature; Native protein, bought; also called 人肌红蛋白标准抗原; ABCam ab77876
T1 sequence (looked up): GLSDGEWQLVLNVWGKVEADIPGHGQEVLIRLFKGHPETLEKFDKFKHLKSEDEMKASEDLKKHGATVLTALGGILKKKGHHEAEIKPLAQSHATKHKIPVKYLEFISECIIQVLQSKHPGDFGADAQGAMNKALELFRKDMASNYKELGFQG
Briefly: indirect ELISA, human myoglobin coated at 300 ng/ml, purified antibody in two-fold dilutions from 1:10 000.

Bounds are passed on as bounds.

B1: 鼠源抗人肌红蛋白单克隆抗体5M7 (antibody)
chain 1: VQLQESGAELARPGASVKLSCKASGYTFTIYWMQWVKQRPGQGLEWIGSIYPGDGDTRYNQKFKGKATFTADKSSSTAYMQLISLASEDSAVYYCATGLYYGYDEGHWYFDVWGQGTTV
chain 2: DIVMSQSPASLAVSLGQRATISYRASKSVSTSGYSYMHWNQQKPGQPPRLLIYLVSNLESGVPARFSGSGSGTDFTLNIHPVEEEDAATYYCQHIR
As for B1, the “效价 (titer, antibody dilution at OD450 about 1.0)” value is at least 1e+06 dilution fold.

B2: 鼠源抗人肌红蛋白单克隆抗体3M4 (antibody, V domains shown)
VH: VKLQESGGGLVQPGGSMKLSCVASGFNFSSYWMSWVRQSPEKGLEWVAEIRLKSDNYATHYAESVKGKFTISRDDSKSSLYLQMNNLRTEDTGIYFCADHGLTGHWGQGTTVTVSS
VL: LTQSPAIMSASPGEKVTLTCSASSSVSSSYLYWYQQKPGSSPKIWIYSTSNLAFGVPDRFSGSGSGTSYSLTISTMEAEDAASYFCHQWSSYPFTFGAGTKLE
B2 displayed a 效价 (titer, antibody dilution at OD450 about 1.0) (dilution fold) above 1e+06.
